Data taken from the domain aggregation screens of Martell et al. (2025).

Test: soluble fraction after stress (log2 fold change); higher = more stays soluble; pooled small domains, quantitative proteomics
Conditions: stress: 75 degC
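Also: 20 min heating vs room temperature control held 20 min.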

First: HMKQISQNIHRLRKEKGMSQEQLAQALHVTRQTVSAWERGIAQPSLDVLGQIAQLLGVEPERLLYGE
Second: HMKQLQIPYSFAKRHGVLLRYEGDQAFIVRRDNTSMLALQEARRLLGHPAHYLLYSEQEFNQLLSASFA
The “soluble fraction (log2)” value of the first is higher: 0.288 for the first, -2.69 for the second.

Compared with “HMKQLVVVPRVVSLSEGKAREDVGDRGLVVDRVEMDTLRTPYENTVTRQEPAADSRVPVGTRVTLWISPGV”, “HMKQNSDDGEIRKIIIEILDNNLDNVNKYKSGRTNVLDFFVGQVMKQTRGQANPELTRSILTEELSN” is lower in “soluble fraction (log2)” value: 0.567 for the first, -0.169 for the second.

Going from “HMKQQTRAELLDEFAKAHAERGLYFNRDYEQGEIQALQPDKAREYLQSALEARTERQQASEQDR” to “HMKQTDQELAEMLRFRAAQRGLLMSDEVVNYVMTRVERSAKSLIMLLDRIDRAALAQARPVTIPLINEL”, the “soluble fraction (log2)” value falls from 0.262 to -0.523.

First: HMKQVEVPRLVGLTLREAQAVLGQVGLRIGLISRAALLASPREQIVEQIPVAGERNIATPYVNLLVNVP
Second: HMKRDEYIAQLKKYLKRLPKKEYDSAIEYFTEYFDEAGPERELEVIQELGQPKEAAKEMLLQLLNE
The “soluble fraction (log2)” value of the first is lower: -0.895 for the first, -0.105 for the second.

Going from “HMKRDNETRRRIVAAAEELFRAKGLDGVNMRELAEMAGVNKGLLHYYFKTKQALFREILVGQMAL” to “HMKRDRLYGITIYLLNHGRTSAKTLAEYFEVSVRTIQRDMDALSMAKIPIIAYPGSDGGYEIQEGYRL”, the “soluble fraction (log2)” value falls from -1.31 to -3.03.

Going from “HMKRDYELPAFIETYLKKNHVAIDTKSAAMIAEHIGADLSRLISELDKVMISLPDDDRRVTPDVVEREI” to “HMKREETLKALATKNANYVARSGRRYSFEPMNPYERRIIHTAVQEIEGVTSRSIGSGMDRRVLIEPEGGV”, the “soluble fraction (log2)” value falls from -0.0791 to -0.322.

First: HMKRELFVEPGMRLEHTPSKTSGPVVSFIEGVIVVIKDQLGSEHRFDPVPGFFRHEGDLVALRSPLL
Second: HMKRIDTILETFAKVHKHIPSKLILLGDGPELLDMRKIARSLHIEDDVLFLGKQDQVSKFYQMADLVLLL
The “soluble fraction (log2)” value of the first is lower: -0.996 for the first, -0.314 for the second.

First: HMKRIHLSDEEKTDLESLHYSSNDGKQRDRIKAVLLRSEGWTVPMISQALRIHETTVTRYLNDYREGKLKN
Second: HMKRITKKELKQAIVDVFADKPGQSFNYKQLATIIGIKDDPTRRMITDILYELVQEERIVELYRGKFKMEM
The “soluble fraction (log2)” value of the first is higher: -0.724 for the first, -2.58 for the second.

First: HMKRLPFSFAKRFGVVVEDGEPPIVHHRDGASAETLLEVRRRLGQVFTLQRHDAEAFERLLTQAYQR
Second: HMKRPEPESPEAERRSQRAADWLVRRDRGLTAAEQDEFLQWLAIDPRHGEWFALHRSVVGEFSA
The “soluble fraction (log2)” value of the first is lower: -1.15 for the first, -0.081 for the second.

Compared with “HMKRQDFEFLVNLLRQNAGWDFDEEQYFVVDKKISNFIREKGYASVEDLIDELKVGAKPLISQVVESLAL”, “HMKRTFGEISPLPSGRYRARYRGPDGERYPAPVTFLSRMDAETWLSAQARKVSSGDWTPPVGVVA” is higher in “soluble fraction (log2)” value: -0.576 for the first, -0.34 for the second.

“HMKRWHVGDPIDALTAAGKVPSWSTIRQRFWKTIAALYPDIEQSERLQRGLAMLDEAGTSIELHHP” and “HMKRYLFEEVLAFLKHNDGKSFNYKQLGAAMEIDNESDRFALLETLEELKHQGFVIETDIGKYAAKE” are within 0.2 log units of each other in “soluble fraction (log2)” value: -1.03 for the first, -0.868 for the second.

First: HMKSDELTKRRRLQIIEAAERSFRKRGFHATTLREIAAEFGMSVGHIYNYFSGKDAILEALIHQKIDD
Second: HMKSKHENLIDGLLKMISSMKPHDRLTPERQLAEEWAVSRMTLRRALEVLQFQGKIYTVPSSGLFVAEPK
The “soluble fraction (log2)” value of the first is higher: -1.01 for the first, -2.89 for the second.

Going from “HMKSKPRVPFGSLVEMGILKPGSILFDPKGKIKTKVMVDGSIKYKETEGSIHKVAAQIMGTESYNGWTYW” to “HMKSLDDVISKFRPTGSENKIDFRKRVISEIHAQGFFKIKGSVNHVAKALGVTRYTVYNYLDKLND”, the “soluble fraction (log2)” value falls from 0.488 to -3.65.

Compared with “HMKSLLTHAEEFVRNNNGRWMLAETSSKESYSSKQNFYLRNNYSIISEIRDFYSVGDNLLVFGKFFT”, “HMKSNESAELGERMLNKALLALHTDSSKISDTQWQKLLRDYGAKNKQEILTDIGLGKRLNVMVAHQLMAMG” is lower in “soluble fraction (log2)” value: 0.201 for the first, -0.271 for the second.

“HMKSNIGENIRQLREKREMSVERVARMLEVKPATVIGWESGRELPEPAELGLLAKLFDVTVEELN” and “HMKSNKEKIYDFIQMHDTAEKEGGVSTTYIAQALSLQRTNVSSLLNALVEEGRIHKSNGRPVLYSIAG” are within 0.2 log units of each other in “soluble fraction (log2)” value: -0.121 for the first, -0.242 for the second.

First: HMKSPAQAAALKKLWAAIKQNEQGEVVEVLFHNRKLTDAGLVHLKGLANLQTLNLYDTKITGAGLVHL
Second: HMKSVLDDVAGLGPVRKKALLKAMGGFTRLRAASLDDILAVRAVPEEVAREVFAVLAQYNSVRNNDISE
The “soluble fraction (log2)” value of the first is higher: -0.0641 for the first, -1.08 for the second.

“HMKSVTAPLPGTVTQILVKVGDAVKAGDTVLMLEAMKMENSITAEAAGTVKAIRVEKGAQVQGGDVLIEM” and “HMKTAAKVLGESGGKPVTVQSGRYGPYVQLGTIRATLPKDLDQEAVTLDKALELIDAKAERSGK” are within 0.2 log units of each other in “soluble fraction (log2)” value: 0.157 for the first, 0.00631 for the second.

Compared with “HMKTDFEIDITVKASSLRVVASPGGDELVGTVTRGDRVTQLATPKDGWILIKMTDGRLGYVPESLLLFP”, “HMKTEIGQAMRKLRKAKKMTQDTLAEKLGVAPANISRYEKGQQGIEVDKLPTLADALGVSVPEFFAIASG” is higher in “soluble fraction (log2)” value: -1.87 for the first, 0.0367 for the second.

Compared with “HMKTELAYDFHSRIRDARIREGLSQVDLAKRMNEKIAVIQKAENGIRPTDSLIAKFSKALSVELYVE”, “HMKTGIIYGVNGPVIYLKGDTGFKISEMVYVGPEKLVGEVIGLKKHMTTVQVFEETTGLKPGETVIGTGDA” is higher in “soluble fraction (log2)” value: -2.12 for the first, -0.378 for the second.
